Columns and labels:
[1] = target: T1, GST-ZBTB24 zinc finger domain (UniProt O43167 294-512); test: EMSA
[2] = target: T1, GST-ZBTB24 zinc finger domain; test: competition
[3] = target: T1, GST-ZBTB24 zinc finger domain; test: EMSA; remark: listed apart in the source

T1 sequence (O43167 294-512): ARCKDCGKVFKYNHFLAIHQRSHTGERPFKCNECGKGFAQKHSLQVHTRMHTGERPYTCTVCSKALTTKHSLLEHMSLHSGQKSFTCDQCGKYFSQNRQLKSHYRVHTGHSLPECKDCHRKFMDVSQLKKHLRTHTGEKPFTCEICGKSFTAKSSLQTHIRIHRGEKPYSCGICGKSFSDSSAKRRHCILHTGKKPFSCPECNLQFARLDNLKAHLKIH

B1: CAMKMT promoter wt (dsDNA)
DNA 1: GGGAAGAAGTTGGCAGGTCCTGGCAGGGGACGAGCTGCGGC
DNA 2: GCCGCAGCTCGTCCCCTGCCAGGACCTGCCAACTTCTTCCC
**Q.** Does B1 bind [1]?
**A.** binds

B2: CAMKMT promoter mut1 (dsDNA)
DNA 1: GGGAAGAAGTTGGCAGGTACTGGCAGGGGACGAGCTGCGGC
DNA 2: GCCGCAGCTCGTCCCCTGCCAGTACCTGCCAACTTCTTCCC
**Q.** Does B2 bind [2]?
**A.** no binding

B3: CAMKMT promoter mut2 (dsDNA)
DNA 1: GGGAAGAAGTTGGCAGATACTGGCAGTGGACGAGCTGCGGC
DNA 2: GCCGCAGCTCGTCCACTGCCAGTATCTGCCAACTTCTTCCC
**Q.** Does B3 bind [2]?
**A.** no binding

B4: GAPDH promoter (dsDNA)
DNA 1: GAGCCTGGCGGGAGGCGGGGTCCGAGTCACCGCCTGCCGC
DNA 2: GCGGCAGGCGGTGACTCGGACCCCGCCTCCCGCCAGGCTC
**Q.** Does B4 bind [3]?
**A.** no binding

B5: OSTC promoter (dsDNA)
DNA 1: GTTAGAAGTCCCGCAGGTCCTTGAAGGTACACAAATCACC
DNA 2: GGTGATTTGTGTACCTTCAAGGACCTGCGGGACTTCTAAC
**Q.** Does B5 bind [3]?
**A.** binds

B6: CDCA7 outside promoter motif (dsDNA)
DNA 1: GGGTGCTGGACGCAGGCGGGCGCGGGCCGACCCTCTCCAA
DNA 2: TTGGAGAGGGTCGGCCCGCGCCCGCCTGCGTCCAGCACCC
**Q.** Does B6 bind [3]?
**A.** no binding

B7: CDCA7 promoter (dsDNA)
DNA 1: GGCCGTTACCACAGCTTGCAGGACCTGTGTCCCAACGCGG
DNA 2: CCGCGTTGGGACACAGGTCCTGCAAGCTGTGGTAACGGCC
**Q.** Does B7 bind [3]?
**A.** binds

— article PMC6212772
